T1: Mouse Semaphorin3A-Sema Domain, TPP-19069 (mouse, UniProt O08665 21-569)
T1 construct: produced inhouse
T1 sequence: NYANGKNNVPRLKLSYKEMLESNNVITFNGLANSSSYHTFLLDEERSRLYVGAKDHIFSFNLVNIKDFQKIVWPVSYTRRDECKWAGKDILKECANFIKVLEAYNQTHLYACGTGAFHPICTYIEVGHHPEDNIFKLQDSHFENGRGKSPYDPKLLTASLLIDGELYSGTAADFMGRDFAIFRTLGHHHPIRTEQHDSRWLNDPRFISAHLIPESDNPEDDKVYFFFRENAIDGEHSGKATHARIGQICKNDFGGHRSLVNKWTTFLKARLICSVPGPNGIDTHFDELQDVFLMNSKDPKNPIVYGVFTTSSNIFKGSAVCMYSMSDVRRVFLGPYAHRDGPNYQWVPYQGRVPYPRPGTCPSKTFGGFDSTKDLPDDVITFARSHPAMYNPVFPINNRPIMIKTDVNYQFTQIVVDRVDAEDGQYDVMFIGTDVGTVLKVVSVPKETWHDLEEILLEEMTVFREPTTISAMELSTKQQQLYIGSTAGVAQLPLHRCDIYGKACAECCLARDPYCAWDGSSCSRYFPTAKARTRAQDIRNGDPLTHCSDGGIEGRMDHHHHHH

T2: Human Semaphorin3A-Sema Domain, TPP-19068 (human, UniProt Q14563 21-569)
T2 construct: produced inhouse in HEK293-6E; also called human monovalent Sema3A domain
T2 sequence: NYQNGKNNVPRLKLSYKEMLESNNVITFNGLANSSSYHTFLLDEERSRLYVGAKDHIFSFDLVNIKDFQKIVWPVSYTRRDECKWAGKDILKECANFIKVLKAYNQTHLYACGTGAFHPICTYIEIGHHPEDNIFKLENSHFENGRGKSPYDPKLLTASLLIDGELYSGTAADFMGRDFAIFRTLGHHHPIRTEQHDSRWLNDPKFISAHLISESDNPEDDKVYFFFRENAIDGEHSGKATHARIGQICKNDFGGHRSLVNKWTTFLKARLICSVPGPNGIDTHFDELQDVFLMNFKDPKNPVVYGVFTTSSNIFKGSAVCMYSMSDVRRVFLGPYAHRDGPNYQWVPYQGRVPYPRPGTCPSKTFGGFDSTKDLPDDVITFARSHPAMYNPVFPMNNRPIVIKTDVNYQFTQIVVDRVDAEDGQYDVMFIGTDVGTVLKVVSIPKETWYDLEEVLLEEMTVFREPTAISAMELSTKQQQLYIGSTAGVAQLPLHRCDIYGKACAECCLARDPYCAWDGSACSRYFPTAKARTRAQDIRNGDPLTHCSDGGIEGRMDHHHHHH


How the values were obtained:
[1] = target: T1, Mouse Semaphorin3A-Sema Domain, …; assay: SPR, captured antibody, Sema3A domain analyte
Procedure: (§1) To assess the binding activity of anti-Sema3A antibodies binding assays were conducted using surface plasmon resonance (SPR). Binding assays were performed on a Biacore T200 instrument (Cytiva) at 25° C. using assay buffer HBS P+, 300 mM NaCl, 0.75 mM CaCl₂, 2.5 mM MgCl₂, 1 mg/ml BSA, 0.05% NaN₃. Antibodies were captured via anti-human Fc IgGs (“Human antibody capture kit”, Order No. BR100839, Cytiva) covalently amine coupled to a Series S CM5 sensor chip (Cytiva). The amine coupling was carried out according to the manufacturer's instructions using 1-ethyl-3-(3-dimethylaminopropyl) carbodiimide hydrochloride (EDC), N-hydroxysuccinimide (NHS) and ethanolamine HCl, pH 8.5 (“Amine Coupling Kit” BR-1000-50, Cytiva.). Human, mouse, cynomolgus, rat, dog and pig monovalent Sema3A domain were used as analytes in a concentration series from 0.024-3.125 nM in multi cycle kinetics mode. The sensor surface was regenerated with glycine pH 2.0 after each antigen injection. Obtained sensorgrams were double referenced (subtraction of reference flow cell signal and buffer injection) and were fitted to a 1:1 Langmuir binding model using the Biacore T200 Evaluation software obtaining the experimental fitted RMax value. To calculate the binding activity first the theoretical RMax needs to be calculated according to equation 1: […]
(§2) Binding activity was determined by dividing the experimental determined RMax by the theoretical calculated RMax according to equation 2: […]

[2] = target: T2, Human Semaphorin3A-Sema Domain, …; assay: SPR, captured antibody, Sema3A domain analyte
Procedure: as §1, §2

[3] = target: T3, Human Semaphorin3A-Fc (R&D Systems), TPP-13211 (human); assay: competition ELISA on coated TPP-13211, competitor biotinylated TPP-15370
T3 construct: R&D Systems 1250-S3; also called recombinant human Sema3A-Fc chimera
T3 sequence (chain, as listed by the source limits assumed): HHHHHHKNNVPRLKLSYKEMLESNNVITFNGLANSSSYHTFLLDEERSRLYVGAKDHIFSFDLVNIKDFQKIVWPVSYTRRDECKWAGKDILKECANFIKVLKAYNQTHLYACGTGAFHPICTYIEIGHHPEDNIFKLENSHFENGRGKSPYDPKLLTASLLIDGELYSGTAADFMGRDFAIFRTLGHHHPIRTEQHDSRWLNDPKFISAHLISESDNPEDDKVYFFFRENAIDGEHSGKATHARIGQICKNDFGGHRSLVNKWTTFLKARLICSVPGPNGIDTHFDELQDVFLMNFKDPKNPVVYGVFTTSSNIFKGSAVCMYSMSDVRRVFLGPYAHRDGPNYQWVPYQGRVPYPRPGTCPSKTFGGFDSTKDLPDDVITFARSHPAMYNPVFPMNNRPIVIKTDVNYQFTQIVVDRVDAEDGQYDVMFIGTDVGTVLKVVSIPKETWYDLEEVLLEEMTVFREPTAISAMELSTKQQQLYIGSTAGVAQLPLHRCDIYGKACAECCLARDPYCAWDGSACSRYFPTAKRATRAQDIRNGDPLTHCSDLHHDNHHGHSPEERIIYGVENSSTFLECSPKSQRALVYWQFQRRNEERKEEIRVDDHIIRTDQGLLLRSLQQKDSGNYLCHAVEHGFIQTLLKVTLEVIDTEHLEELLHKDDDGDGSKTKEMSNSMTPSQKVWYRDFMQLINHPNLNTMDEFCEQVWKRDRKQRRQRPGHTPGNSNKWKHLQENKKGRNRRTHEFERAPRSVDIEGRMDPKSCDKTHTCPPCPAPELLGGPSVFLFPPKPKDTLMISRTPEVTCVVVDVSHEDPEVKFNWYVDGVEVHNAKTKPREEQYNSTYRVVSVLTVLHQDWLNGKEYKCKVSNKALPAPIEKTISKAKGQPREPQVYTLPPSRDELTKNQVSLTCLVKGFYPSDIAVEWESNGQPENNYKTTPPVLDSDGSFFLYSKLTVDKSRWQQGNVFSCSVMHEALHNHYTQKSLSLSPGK
Procedure: For screening in a competition ELISA setup, human Sema3a (TPP-13211) was coated onto 384-well plates (Greiner bio-one, 781077) with a concentration of 0.5 μg/ml in coating buffer (Carbonate-Basis pH 9.6, Candor 121125) over night at 10° C. After washing the plates 3 times with 50 μl PBS 0.05% Tween the plates were blocked with 50 μl Smart Block® (Candor 113500) for 1 h at 20° C. and washed again 3 times as described.
Subsequently, 20 μl of pre-mixed antibody solution was added to the plates and incubate for 18 h at 10° C. […] The total concentration of the added antibody solution was 0.25 μg/ml. During the incubation time the antibodies bound to the plates in a competitive manner as they compete for the same epitope on the human Sema3A protein.
After subsequent washing with 50 μl PBS 0.05% Tween for 3 times, 20 μl of a Streptavidin-HRP solution (R&D Systems, DY998, 1:200 in PBS 0.05% Tween 10% Smart Block) were added and incubated for 1 h and 20° C. followed by subsequent washing 3 times with 50 μl PBS 0.05% Tween and addition of 20 μl Amplex Red solution (Invitrogen A12222, 1:1000 in NaP-buffer 50 mM pH7.6 with 1:10000 of 30% H2O2). After a final incubation for 20 min at 20° C. the signal was determined using an emission wavelength of 595 nm and excitation of 530 nm.

Binder | Binding Activity [%] [1] [%] | Binding Activity [%] [2] [%] | VAL norm to TPP-9809 (1 to 1 ratio) [3] | VAL norm to TPP-9809 (1 to 5 ratio) [3]
TPP-17755 (antibody, human IgG1, lambda, V domains shown, also called Samsung; Samsung Prior Art F11) VH: EVQLLESGGGLVQTGGSLRLSCAASGFTFSDYAMSWVRQAPGKGLEWVSWIYYDSGSKYYADSVKGRFTISRDNSKNTLYLQMNSLRAEDTAVYYCAKLNGDFDYWGQGTLVTVSS VL: QSVLTQPPSASGTPGQRVTISCSGSSSNIGNNDVSWYQQLPGTAPKLLIYADSHRPSGVPDRFSGSKSGTSASLAISGLRSEDEADYYCGAWDSSLSGYVFGGGTKLTVLG | 57 | 55 |  | 
TPP-23337 (antibody, human IgG4 S228P, lambda, V domains shown) VH: EVQLLESGGGLVQPGGSLRLSCAASGFTFSSYAMSWVRQAPGKGLEWVSAIGYGGDTYYADSVKGRFTISRDNSKNTLYLQMNSLRAEDTAVYYCARRDDYTSRDAFDYWGQGTLVTVSS VL: not shown |  |  | 0.27 | 0.14
TPP-23334 (antibody, human IgG4 S228P, lambda, V domains shown) VH: EVQLLESGGGLVQPGGSLRLSCAASGFTFSSYAMSWVRQAPGKGLEWVSAIGYGGDTYYADSVKGRFTISRDNSKNTLYLQMNSLRAEDTAVYYCARRDDYTSRDAFDYWGQGTLVTVSS VL: not shown |  |  | 0.28 | 0.11
TPP-23338 (antibody, human IgG4 S228P, lambda, V domains shown) VH: EVQLLESGGGLVQPGGSLRLSCAASGFTFSSYAMSWVRQAPGKGLEWVSAIGYGGDTYYADSVKGRFTISRDNSKNTLYLQMNSLRAEDTAVYYCARRDDYTSRDAFDYWGQGTLVTVSS VL: not shown |  |  | 0.33 | 
TPP-23345 (antibody, human IgG4 S228P, lambda, V domains shown) VH: EVQLLESGGGLVQPGGSLRLSCAASGFTFSSYAMSWVRQAPGKGLEWVSAIGYGGDTYYADSVKGRFTISRDNSKNTLYLQMNSLRAEDTAVYYCARRDDYTSRDAFDYWGQGTLVTVSS VL: not shown |  |  | 0.27 | 0.08
TPP-23341 (antibody, human IgG4 S228P, lambda, V domains shown) VH: EVQLLESGGGLVQPGGSLRLSCAASGFTFSSYAMSWVRQAPGKGLEWVSAIGYGGDTYYADSVKGRFTISRDNSKNTLYLQMNSLRAEDTAVYYCARRDDYTSRDAFDYWGQGTLVTVSS VL: not shown |  |  | 0.38 | 0.18
TPP-23340 (antibody, human IgG4 S228P, lambda, V domains shown) VH: EVQLLESGGGLVQPGGSLRLSCAASGFTFSSYAMSWVRQAPGKGLEWVSAIGYGGDTYYADSVKGRFTISRDNSKNTLYLQMNSLRAEDTAVYYCARRDDYTSRDAFDYWGQGTLVTVSS VL: not shown |  |  | 0.4 | 
TPP-30788 (antibody, human IgG1, kappa, V domains shown, prior art, WO 2020/225400; also called BI clone I; Böhringer (BI) Clone I) VH: EVQLVESGGGLVQPGGSLRLSCAASGFTFSSYYMSWVRQAPGKGLEWVSTIIKSGGYAYYPDSVKDRFTISRDNSKNTLYLQMSSLRAEDTAVYYCVRGGQGAMDYWGQGTTVTVSS VL: EIVLTQSPATLSLSPGERATLSCRASQSIGDYLHWYQQKPGQAPRLLIKYASQSISGIPARFSGSGSGTDFTLTITSLEPEDFAVYYCQQGYSFPYTFGGGTKLEIKR | 108 | 107 |  | 

More lines, now with the values ahead:

Binding Activity [%] [1] [%] | Binding Activity [%] [2] [%] | VAL norm to TPP-9809 (1 to 1 ratio) [3] | VAL norm to TPP-9809 (1 to 5 ratio) [3] | Binder
 |  | 0.3 | 0.16 | TPP-23347 (antibody, human IgG4 S228P, lambda, V domains shown) VH: EVQLLESGGGLVQPGGSLRLSCAASGFTFYSYAMLWVRQAPGKGLEWVSAIGTGGDTYYADSVKGRFTISRDNSKNTLYLQMNSLRAEDTAVYYCARRDDYTSRDAFDYWGQGTLVTVSS VL: not shown
 |  | 0.22 | 0.13 | TPP-23346 (antibody, human IgG4 S228P, lambda, V domains shown) VH: EVQLLESGGGLVQPGGSLRLSCAASGFTFYSYAMLWVRQAPGKGLEWVSAIGTGGDTYYADSVKGRFTISRDNSKNTLYLQMNSLRAEDTAVYYCARRDDYTSRDAFDYWGQGTLVTVSS VL: not shown
 |  | 0.19 | 0.08 | TPP-23374 (antibody, human IgG4 S228P, lambda, V domains shown) VH: EVQLLESGGGLVQPGGSLRLSCAASGFTFYSYAMSWVRQAPGKGLEWVSAIGYGGDTYYADSVKGRFTISRDNSKNTLYLQMNSLRAEDTAVYYCARRDDYTSRDAFDYWGQGTLVTVSS VL: not shown
 |  | 0.3 | 0.16 | TPP-23375 (antibody, human IgG4 S228P, lambda, V domains shown) VH: EVQLLESGGGLVQPGGSLRLSCAASGFTFYSYAMSWVRQAPGKGLEWVSAIGYGGDTYYADSVKGRFTISRDNSKNTLYLQMNSLRAEDTAVYYCARRDDYTSRDAFDYWGQGTLVTVSS VL: not shown
 |  | 0.35 | 0.2 | TPP-23373 (antibody, human IgG4 S228P, lambda, V domains shown) VH: EVQLLESGGGLVQPGGSLRLSCAASGFTFYSYAMSWVRQAPGKGLEWVSAIGYGGDTYYADSVKGRFTISRDNSKNTLYLQMNSLRAEDTAVYYCARRDDYTSRDAFDYWGQGTLVTVSS VL: not shown
107 | 107 |  |  | TPP-30791 (antibody, human IgG1, kappa, V domains shown, prior art, WO 2020/225400; also called BI clone IV; Böhringer (BI) Clone IV) VH: EVQLVESGGGLLQLGGSLRLSCAASGFTFSSYYMSWVRQAPGKGLEWVSTIIKSGGYAYYPDSVKDRFTISRDNSKNTLNLQMNSLRAEDTAVYYCVKGGQGAMDYWGQGTTVTVSS VL: EIVLTQSPATLSLSPGERATLSCRASQSIGDYLHWYQQKPGQAPRLLIKYASQSISGIPARFSGSGSGTDFTLTISSLEPEDFAVYYCQQGYSFPYTFGGGTKLEIKR
93 | 93 |  |  | TPP-30790 (antibody, human IgG1, kappa, V domains shown, prior art, WO 2020/225400; also called BI clone III; Böhringer (BI) Clone III) VH: EVQLVESGGGLVQLGGSLRLSCAASGFTFSSYYMSWVRQAPGKGLEWVSTIIKSGGYAYYPDSVKDRFTISRDNSKNTLYLQMNSLRAEDTAVYYCVKGGQGAMDYWGQGTTVTVSS VL: EIVLTQSPATLSLSPGERATLSCRASQSIGDYLHWYQQKPGQAPRLLIYYASQSISGIPARFSGSGSGTDFTLTISSLEPEDFAVYYCQQGYSFPYTFGGGTKLEIKR
103 | 106 |  |  | TPP-30789 (antibody, human IgG1, kappa, V domains shown, prior art, WO 2020/225400; also called BI clone II; Böhringer (BI) Clone II) VH: EVQLVESGGGLVQPGGSLRLSCAASGFPFSSYYMSWVRQAPGKGLEWVSTIIKSGGYAYYPDSVKDRFTISRDNSKNTLYLQMSSLRAEDTAVYYCVRGGQGAMDYWGQGTTVTVSS VL: EIVLTQSPATLSLSPGERATLSCRASQSIGDYLHWYQQKPGQAPRLLIKYASQSISGIPARFSGSGSGTDFTLTITSLEPEDFAVYYCQQGYSFPYTFGGGTKLEIKR

Source: patent publication US20240254222A1 (Bayer, published 2024)
